Source: paper PMC6053543

Molecular target: β1 wild-type cytoplasmic tail peptide
Test: pull-down

fold more talin pulled down with equal molar FL-Kank2 than with GST only: 5 fold | fold more talin pulled down with equal molar GST-KN than with GST only: 5 fold
Substance: recombinant full length talin-1, P26039 1-2541
